According to paper PMC5997990:

Legend:
[1] = target: T7 helicase-primase gp4A' (wild-type helicase) (bacteriophage T7) (UniProt P03692)
[2] = target: T7 helicase-primase gp4A' (wild-type helicase) (bacteriophage T7) (UniProt P03692); assay: single-molecule optical trapping (DNA unzipping force); helicase and DNAP in solution with a tethered forked dsDNA, 2 mM dTTP; after helicase unwound ~1000 bp under 9 pN the remaining DNA was unzipped mechanically at 2000 bp/s; a force-rise above the naked DNA baseline shows protein bound across the fork junction; 50 mM Tris-HCl pH 7.5, 40 mM NaCl, 10% glycerol; 25 ± 1 °C

## T7 DNA polymerase (gp5/trx complex), exo- gp5 (D5A, D7A) with E. coli thioredoxin (from UniProt P00581 1-704; P0AA25 1-109)
[1]
  replication re-initiation efficiency after collision with a stalled E. coli TEC, normalised against the TEC formation efficiency: 15%
  traces that passed a stalled co-directional E. coli TEC and went over to unwinding with leading-strand synthesis, 0.5 mM dNTP each, 5 pN: 12%
[2]
  peak of the force-rise: 26 pN
  percent of traces with a force-rise above the naked DNA baseline: 75%
